Experimental data reported in patent US6602850B1, “Method of treating asthma using soluble IL-9 receptor variants” (Genaera Corporation, priority 1996, dated 2003).

B1: ΔQ173 variant: splice variant of the IL-9R wherein the glutamine residue at position 173 of the precursor protein has been deleted (SEQ ID NO 3) (protein)
chain: SVTGEGQGPRSRTFTCLTNNILRIDCHWSAPELGQGSSPWLLFTSNQAPGGTHKCILRGSECTVVLPPEAVLVPSDNFTITFHHCMSGREQVSLVDPEYLPRRHVKLDPPSDLQSNISSGHCILTWSISPALEPMTTLLSYELAFKKQEEAWEAQHRDHIVGVTWLILEAFELDPGFIHEARLRVQMATLEDDVVEEERYTGQWSEWSQPVCFQAPQRQGPLIPPWGWPGNTLVAVSIFLLLTGPTYLLFKLSPRVKRIFYQNVPSPAMFFQPLYSVHNGNFQTWMGAHRAGVLLSQDCAGTPQGALEPCVQEATALLTCGPARPWKSVALEEEQEGPGTRLPGNLSSEDVLPAGCTEWRVQTLAYLPQEDWAPTSLTRPAPPDSEGSRSSSSSSSSSNNNNYCALGCYGGWHLSALPGNTQSSGPIPALACGLSCDHQGLETQQGVAWVLAGHCQRPGLHEDLQGMLLPSVLSKARSWTF
B2: IL-9R: wild type human IL-9 receptor, Arg allele at codon 344 with 8 Ser/4 Asn repeats (SEQ ID NO 1) (protein)
chain: SVTGEGQGPRSRTFTCLTNNILRIDCHWSAPELGQGSSPWLLFTSNQAPGGTHKCILRGSECTVVLPPEAVLVPSDNFTITFHHCMSGREQVSLVDPEYLPRRHVKLDPPSDLQSNISSGHCILTWSISPALEPMTTLLSYELAFKKQEEAWEQAQHRDHIVGVTWLILEAFELDPGFIHEARLRVQMATLEDDVVEEERYTGQWSEWSQPVCFQAPQRQGPLIPPWGWPGNTLVAVSIFLLLTGPTYLLFKLSPRVKRIFYQNVPSPAMFFQPLYSVHNGNFQTWMGAHRAGVLLSQDCAGTPQGALEPCVQEATALLTCGPARPWKSVALEEEQEGPGTRLPGNLSSEDVLPAGCTEWRVQTLAYLPQEDWAPTSLTRPAPPDSEGSRSSSSSSSSSNNNNYCALGCYGGWHLSALPGNTQSSGPIPALACGLSCDHQGLETQQGVAWVLAGHCQRPGLHEDLQGMLLPSVLSKARSWTF

Tests used:
Jak-Stat pathway = experiment: Tyrosine phosphorylation of Jak, Stat and Irs family members in TS1 cells expressing human IL-9 receptor variants, after IL-9 stimulation; assay type: cell-based; conditions: TS1 cells expressing the receptor form, starved 6 hours, treated 5 minutes with human or murine IL-9 (100 ng/ml), FIG. 15
Procedure: (§1) To determine growth response of TS1 cells expressing various forms of human IL-9 receptor, cells were washed with PBS and resuspended in D-MEM, 10% fetal bovine serum. 10^3 cells per well were seeded in triplicate in 96-well microplates and, where appropriate, recombinant human IL-9 or murine IL-9 (R&D Systems, Minneapolis, Minn.) was added at a final concentration of 5 ng/ml. Cell proliferation was evaluated after 7 days using an acid phosphatase assay. Briefly, 50 μl of a buffer containing 0.1 M sodium acetate (pH 5.5), 0.1% Triton X-100 and 10 mM p-nitrophenyl phosphate (Sigma 104 phosphatase substrate) was added per well. The plate was incubated for 1-½ hours at room temperature, the reaction stopped with 10 μl/well of 1N sodium hydroxide and the absorbance was read on a Dynatech Model MR600 at 410 nm. To analyze tyrosine-phosphorylation of proteins of the signal transduction cascade upon cytokine stimulation, TS1 cells expressing various forms of human IL-9 receptor were washed with PBS, resuspended in D-MEM, 0.5% bovine serum albumin, and incubated for 6 hours at 37° C. Successively, 20×10^6 cells were treated for 5 minutes with either human IL-9 or murine IL-9 (100 ng/ml) and immediately washed in cold PBS. Cells were lysed in RIPA buffer as described in Example 11.
Typically, 20-50×10^6cells were lysed in 1 ml of RIPA buffer (PBS containing 1% NP40, 0.5% sodium deoxycholate, 0.1% SDS, 1 mM PMSF, 50 mM sodium fluoride, […] sodium orthovanadate, and 1× “Complete” protease inhibitors mixture, Cat. No. 1697498 Boehringer Mannheim) and incubated for 45 minutes on ice. Lysates were centrifuged for 20 minutes in an Eppendorf microcentrifuge and the supernatant recovered and transferred to a fresh tube. For immunoprecipitations, 1-5 μg of the antibody were added to the lysate and incubated overnight at 4° C. […] Proteins were transferred onto Immobilion-P membrane (Millipore) and detected using a horseradish peroxidase-conjugated secondary antibody followed by a chemiluminescence detection assay (Pierce). […]

TS1 cells = experiment: Proliferation of TS1 cells expressing different forms of human IL-9 receptor (acid phosphatase assay); assay type: cell-based, murine; conditions: TS1 cells expressing the receptor form, IL-9 5 ng/ml, 7 days, FIG. 16
Procedure: as §1

[1] = listed as splice variant of the IL-9R

| Molecule | activation (tyrosine phosphorylation) of proteins of the Jak-Stat pathway (Jak-Stat pathway) | activation (tyrosine phosphorylation) of proteins of the Jak-Stat pathway (Jak-Stat pathway; [1]) | cellular proliferation upon IL-9 stimulation (TS1 cells) | cellular proliferation upon IL-9 stimulation (TS1 cells; [1]) |
| --- | --- | --- | --- | --- |
| B1 | could not activate any proteins in the Jak-Stat pathway | not able to transcribe a signal through the Jak-Stat pathway | could not support cellular proliferation upon IL-9 stimulation | unable to induce cellular proliferation upon stimulation with IL-9 |
| B2 | all of the proteins of the pathway including Jak3 and Irs1 were phophoralated | – | – | – |
